Measured values: IntAct's records for PubMed 22247544

B1: Corticotropin-releasing factor receptor 1 (Homo sapiens), P34998 (parent)
chain: MGGHPQLRLVKALLLLGLNPVSASLQDQHCESLSLASNISGLQCNASVDLIGTCWPRSPAGQLVVRPCPAFFYGVRYNTTNNGYRECLANGSWAARVNYSECQEILNEEKKSKVHYHVAVIINYLGHCISLVALLVAFVLFLRLRSIRCLRNIIHWNLISAFILRNATWFVVQLTMSPEVHQSNVGWCRLVTAAYNYFHVTNFFWMFGEGCYLHTAIVLTYSTDRLRKWMFICIGWGVPFPIIVAWAIGKLYYDNEKCWFGKRPGVYTDYIYQGPMILVLLINFIFLFNIVRILMTKLRASTTSETIQYRKAVKATLVLLPLLGITYMLFFVNPGEDEVSRVVFIYFNSFLESFQGFFVSVFYCFLNSEVRSAIRKRWHRWQDKHSIRARVARAMSIPTSPTRVSFHSIKQSTAV

Variants of: B1
Settings: with GNAI2, P04899-1
GNAI2, P04899-1, sequence (P04899 whole entry): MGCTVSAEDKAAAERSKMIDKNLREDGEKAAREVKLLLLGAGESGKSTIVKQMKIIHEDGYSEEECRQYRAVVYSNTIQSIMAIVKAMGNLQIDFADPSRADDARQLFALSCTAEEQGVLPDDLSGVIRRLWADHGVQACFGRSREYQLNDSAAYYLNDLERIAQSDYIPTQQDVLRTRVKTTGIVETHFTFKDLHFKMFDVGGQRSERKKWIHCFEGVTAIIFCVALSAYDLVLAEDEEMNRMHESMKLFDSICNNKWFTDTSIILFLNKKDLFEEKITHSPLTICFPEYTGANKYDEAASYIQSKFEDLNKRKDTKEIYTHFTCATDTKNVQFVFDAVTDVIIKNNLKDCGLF

Variant	effect of a mutation on the interaction
MGGHPQLRLVKALLLLGLNPVSASLQDQHCESLSLASNISGLQCNASVDLIGTCWPRSPAGQLVVRPCPAFFYGVRYNTTNNGYRECLANGSWAARVNYSECQEILNEEKKSKVHYHVAVIINYLGHCISLVALLVAFVLFLRLRSIRCLRNIIHWNLISAFILRNATWFVVQLTMSPEVHQSNVGWCRLVTAAYNYFHVTNFFWMFGEGCYLHTAIVLTYSTDRLRKWMFICIGWGVPFPIIVAWAIGKLYYDNEKCWFGKRPGVYTDYIYQGPMILVLLINFIFLFNIVRILMTKLRASTTSETIQYRKAVAATLVLLPLLGITYMLFFVNPGEDEVSRVVFIYFNSFLESFQGFFVSVFYCFLNSEVRSAIRKRWHRWQDKHSIRARVARAMSIPTSPTRVSFHSIKQSTAV [K314A]	decreasing interaction strength
MGGHPQLRLVKALLLLGLNPVSASLQDQHCESLSLASNISGLQCNASVDLIGTCWPRSPAGQLVVRPCPAFFYGVRYNTTNNGYRECLANGSWAARVNYSECQEILNEEKKSKVHYHVAVIINYLGHCISLVALLVAFVLFLRLRSIRCLRNIIHWNLISAFILRNATWFVVQLTMSPEVHQSNVGWCRLVTAAYNYFHVTNFFWMFGEGCYLHTAIVLTYSTDRLRKWMFICIGWGVPFPIIVAWAIGKLYYDNEKCWFGKRPGVYTDYIYQGPMILVLLINFIFLFNIVAILMTKLRASTTSETIQYRKAVKATLVLLPLLGITYMLFFVNPGEDEVSRVVFIYFNSFLESFQGFFVSVFYCFLNSEVRSAIRKRWHRWQDKHSIRARVARAMSIPTSPTRVSFHSIKQSTAV [R292A]	decreasing interaction strength
